Columns and labels:
[1] = test system: FOP patient derived cells; experiment: Evaluation of binding inhibitors: chondrocyte differentiation of FOP patient derived cells in copresence of human activin A; type: cell-based; conditions: copresence of 30 ng/mL human activin A, 6 days; vs activin-treated group
Protocol: Patient iPS cell line-derived mesenchymal stem cell-like cells were prepared by the same method as Example 1. The mesenchymal stem cell-like cells were cultured for 6 days by the same method as Example 3, for differentiation to chondrocytes. The effect of each factor on differentiation to chondrocytes was examined, with neutralizing antibody for human activin A (product of R&D Systems, Inc., trade name: Human/Mouse/Rat Activin A βA subunit Antibody), follistatin (product of R&D Systems, Inc., trade name: Recombinant Human Follistatin 315 as 30-344), follistatin-like 3 (product of R&D Systems, Inc., trade name: Recombinant Human Follistatin-related Gene Protein/FLRG), ACVR2A-Fc chimeric protein (product of R&D Systems, Inc., trade name: Recombinant Human Activin RIIA Fc Chimera (CHO)), or ACVR2B-Fc chimeric protein (product of R&D Systems, Inc., trade name: Recombinant Human Activin RIIB Fc Chimera), in the copresence of 30 ng/mL of human activin A. The ACVR2A-Fc chimeric protein is a fusion protein in which a polypeptide fragment having the amino acid sequence of positions 20 to 134 of the amino acid sequence listed as SEQ ID NO: 12, and the Fc region of the human-derived antibody, are bonded via a linker sequence (Ile-Glu-Gly-Arg-Met-Asp). The ACVR2B-Fc chimeric protein is a fusion protein in which a polypeptide fragment having the amino acid sequence of positions 19 to 134 of the amino acid sequence listed as SEQ ID NO: 14, and the Fc region of the human-derived antibody, are bonded via a linker sequence (Ile-Glu-Gly-Arg-Met-Asp). The extent of differentiation to chondrocytes was evaluated by Alcian blue staining and sulfated glycosaminoglycan assay, similar to Example 3. In FIG. 6(B), the bar graph indicates the mean values for each treated group, and the error bars represent S.D.

[2] = test system: FOP patient derived cells; experiment: Differentiation to chondrocytes (Alcian blue, sulfated glycosaminoglycan assay) of FOP patient derived cells; type: cell-based, human
Protocol: (§1) Mesenchymal stem cell-like cells from a patient iPS cell line and a gene-corrected iPS cell clone were each prepared by the same method as Example 1. The mesenchymal stem cell-like cells were cultured for 6 days under the medium conditions used in the method of Umeda et al. (Sci. Rep., 2012, 2, 455), for differentiation to chondrocytes. During differentiation, 100 ng/mL of human activin A, 100 ng/mL of human BMP-7 or 1 ng/mL of human TGF-β3 (product of R&D Systems, Inc., trade name: Recombinant Human TGF-beta 3) was added and the effect of each factor on differentiation to chondrocytes was examined. The extent of differentiation to chondrocytes was measured with Alcian blue dye and a sulfated glycosaminoglycan assay kit (product of Biocolor, Ltd., trade name: Blyscan Glycosaminoglycan Assay Kit). In FIG. 4, the bar graph indicates the mean values for each treated group, and the error bars represent S.D.

[3] = test system: gene-corrected clone derived cells; experiment: Differentiation to chondrocytes (sulfated glycosaminoglycan assay) of gene-corrected clone derived cells; type: cell-based, human; conditions: 100 ng/mL BMP-7 or 1 ng/mL TGF-β3, 6 days, vs untreated group
Protocol: as §1

Molecule | differentiation of FOP patient derived cells to chondrocytes (Alcian blue staining, sulfated glycosaminoglycan assay) [1] | difference in cartilage induction between FOP patient derived cells and gene-corrected clone derived cells ([2]; 1 ng/mL TGF-β3, 6 days) | cartilage induction effect compared to the effect exhibited by activin A on FOP patient derived cells ([2]; 100 ng/mL BMP-7 or 1 ng/mL TGF-β3, 6 days) | cartilage induction (sulfated glycosaminoglycan assay) ([2]; FOP patient derived cells, 100 ng/mL activin A, 100 ng/mL BMP-7 or 1 ng/mL TGF-β3, 6 days, vs untreated group) | cartilage induction (sulfated glycosaminoglycan assay) [3]
ACVR2B-Fc chimeric protein: Fusion of positions 19 to 134 of SEQ ID NO: 14 with human antibody Fc region via linker Ile-Glu-Gly-Arg-Met-Asp (protein, left off: a dimerising Fc or GST) SGRGEAETRECIYYNANWELERTNQSGLERCEGEQDKRLHCYASWRNSSGTIELVKKGCWLDDFNCYDRQECVATEENPQVYFCCCEGNFCNERFTHLPEAGGPEVTYEPPPTAPTIEGRMD | inhibited | – | – | – | –
TGF-β3: Recombinant Human TGF-beta 3 (R&D Systems) (protein, UniProt P10600 301-412, looked up) Transforming growth factor …: ALDTNYCFRNLEENCCVRPLYIDFRQDLGWKWVHEPKGYYANFCSGPCPYLRSADTTHSTVLGLYNTLNPEASASPCCVPQDLEPLTILYYVGRTPKVEQLSNMVVKSCKCS | – | no significant difference | weaker | significantly enhanced | significantly enhanced
follistatin: Recombinant Human Follistatin 315 (R&D Systems) (protein) GNCWLRQAKNGRCQVLYKTELSKEECCSTGRLSTSWTEEDVNDNTLFKWMIFNGGAPNCIPCKETCENVDCGPGKKCRMNKKNKPRCVCAPDCSNITWKGPVCGLDGKTYRNECALLKARCKEQPELEVQYQGRCKKTCRDVFCPGSSTCVVDQTNNAYCVTCNRICPEPASSEQYLCGNDGVTYSSACHLRKATCLLGRSIGLAYEGKCIKAKSCEDIQCTGGKKCLWDFKVGRGRCSLCDELCPDSKSDEPVCASDNATYASECAMKEAACSSGVLLEVKHSGSCNSISEDTEEEEEDEDQDYSFPISSILEW | inhibited | – | – | – | –
follistatin-like 3: Recombinant Human Follistatin-related Gene Protein/FLRG (R&D Systems) (protein, listed as Homo sapiens) MRPGAPGPLWPLPWGALAWAVGFVSSMGSGNPAPGGVCWLQQGQEATCSLVLQTDVTRAECCASGNIDTAWSNLTHPGNKINLLGFLGLVHCLPCKDSCDGVECGPGKACRMLGGRPRCECAPDCSGLPARLQVCGSDGATYRDECELRAARCRGHPDLSVMYRGRCRKSCEHVVCPRPQSCVVDQTGSAHCVVCRAAPCPVPSSPGQELCGNNNVTYISSCHMRQATCFLGRSIGVRHAGSCAGTPEEPPGGESAEEEENFV | inhibited | – | – | – | –
